Experimental data as given in the domain aggregation screens of Martell et al. (2025).

Test: soluble fraction after stress (log2 fold change); higher = more stays soluble; pooled small domains, quantitative proteomics
Conditions: stress: 50 degC
Method in brief: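 After stress at 50°C, the amount of each protein still soluble was measured. This was done on pooled custom libraries of small protein domains, using high-throughput quantitative proteomics. The figure given is a base-two log fold change and stands for aggregation propensity, with higher values meaning more protein stays in solution.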
In the case of “HMNKRKQRINDLMDLIREQPALSIKNLAEMLNVSEMTIRRDMAYLKSNNLLNRAHGMNFLNS”, the “soluble fraction (log2)” value is reported as 0.0812. With “HMNSKQELAYQTIRARIVDGSYGPGYRIVIDEVARELGVSPIPVREAVRRLEAEGLITYTRHAGARVVA” the “soluble fraction (log2)” value was -0.184. In the case of “HMKQNVEAVIKERAIEKARAQVKAVSTHMALEAQSLSKEQLEFEIERIAAQIIDKMPSDFWND”, the “soluble fraction (log2)” value is reported as -0.386. In the case of “HMVKFGERVKQLRLSAGMTQEQLAERIWVTKAAISNYELSERNPSPETIIKIAGVFGVTTDYLLGLED”, the “soluble fraction (log2)” value is reported as -0.5. For “HMRDYKTALQEWVQRTPGQPIAYRLVDELGPDHARVFVMEVTVGGQSAGQGRGRTKKEAEQLAARAALEKL”, the “soluble fraction (log2)” value was -0.0907. For “HMVPTATVGENTSTLPVRQLPGGPVLVVLVRGDIVLPLPGHAFQNGDVWREISTVNGVIGWVPDEFLDY”, the “soluble fraction (log2)” value was -1.9. In the case of “HMDSTSEILKVIQNIVKKEDPYHPLSDDKISNLLNDLDYQISRRTVAKYRDILTIPSSSKRRKL”, the “soluble fraction (log2)” value is reported as -0.432. In the case of “HMSDFSNLNLLELNSSELDLLLRRASSQGLTQMDLLKMARSQGLSEADLIKVKGKIDTSESIKR”, the “soluble fraction (log2)” value is reported as -0.0148. In the case of “HMKFLYQQVYQDIKDKITSAQYQFGDLLPSEREIGEEYHVDRTTVRKAFSLLVDEGLVEKRAGKGSVVIS”, the “soluble fraction (log2)” value is reported as -0.594. For “HMELNEIEFENLKESIIIHLEKESLSPHELVKHIQTIHPDKVTAVIQWMLENGFIKTDAGGQLTLVSK”, the “soluble fraction (log2)” value was 0.135. For “HMKLVAAGYHQNRLLVLLGIQAEELQAKRLLASFDRFRGREATPKPPIHDSARRWLRDTYHHVMNQVPVEL”, the “soluble fraction (log2)” value was -1.07. In the case of “HMVSEASELTDTINKIGSLAQALVGANKLSKTDLVGIIKKYHTSANYNSITDIGVAKNILAELEAKN”, the “soluble fraction (log2)” value is reported as 0.0739. With “HMNVDSLVGSEARVTAEIDNRKETGTAMVNGQEWTARAESDEEIYPVGTIVEIRKIQGVKLIVSTH” the “soluble fraction (log2)” value was -0.162. In the case of “HMYPEETVNKILDVSMQLFLEKGYEHTSIQDIVNHLGGLSKGAIYHHFKSKEDILDGVMNKLYQNN”, the “soluble fraction (log2)” value is reported as -0.816. For “HMYQPLYEQIKRMLTQSLIDGEWKAGEMIPSEMELAARFKVSQGTVRKAIDELVSENILMRRQGKGTFVH”, the “soluble fraction (log2)” value was -0.231. With “HMDNEIMYPIQINGKVRAELFVSTERAMDKQYVLEQAKANEKIQGYLEGNRLVKEIFVPKRIVNLVIAP” the “soluble fraction (log2)” value was 0.197. For “HMNDADAHASVDAALKHLEALAETTPEVRAALELVRRGPDGRVTVDSFARVAEALREISIAVGAS”, the “soluble fraction (log2)” value was 0.107. For “HMKSKNILLGEYKGKEVHVGEGKYGPFILYDKKFKSIGAYLTENSLMLKDLTIEDYSKIMKFTENSNSKS”, the “soluble fraction (log2)” value was -0.651. In the case of “HMFDGNIKIVEDAFSVTIVARGTEVKISGDPENVYLASKTVEGLLTLIDKGEAITDQRVHYVIGLVREG”, the “soluble fraction (log2)” value is reported as -2.65. In the case of “HMEMLQRFIFLENVSSTQVESAIKELHPNLNLKRVKLSFPGADTVLLKGPKQDLELAEELIRHLDRSE”, the “soluble fraction (log2)” value is reported as -0.0342. With “HMGLSAEAARMAIQDAGLSKEDFAQKLGIKKVERVVEWEAGTSKPTFVQAQKIANATNIPFGYLFLVNPPK” the “soluble fraction (log2)” value was 0.0125. For “HMYDNTVTKYVNSLSVYVRKGPSTSDEIVTSLIKDTDVTVVGENGEWYKIKYKEFEGYIYKNLLSDNKT”, the “soluble fraction (log2)” value was -0.254. For “HMIPESVQGIEEFLATGALKGIGKKTAAAIVHKFGKDTLRIMEEEPERLAEVSGIGEKKAAAIGEAFALH”, the “soluble fraction (log2)” value was 0.171. In the case of “HMAGIPIHMSQLKQIILLLSQGYPIKGIARETGVSRNTIKGYLQTLTSQDLNVTDALKLENIQLEYLLRSP”, the “soluble fraction (log2)” value is reported as -1.65. With “HMSQEAKLAMPVTDLRLSARTLNALELANIRTVRDLVSHTEEQLLELRNFGETALAEVKEKLAALGLRLGM” the “soluble fraction (log2)” value was 0.18. In the case of “HMKTMTTIRKGSRGDTVATLQRKLNLIADGIFGPITDEAVRDFQKSHGLAVDGIVGPKTWAALGVGS”, the “soluble fraction (log2)” value is reported as 0.0423. For “HMQQDVLKLKSGGNYKGEYINIESAYVLFKPEGGNATQRIKVNEIQMLKLADGTEVIFGGRVK”, the “soluble fraction (log2)” value was 0.0478. For “HMKKAIYPGSFDPLTLGHIDIIKRASGIVDELVVGVLNNSAKNSLFSLDERVSMIEEMTKDLPNVSVTSFD”, the “soluble fraction (log2)” value was 0.136. With “HMVLVKFEWTPPDARILVDDHPVEARDKEMELPEGTHHVQALAPRGSGYESTVTDIEVRQGMDPVRIAL” the “soluble fraction (log2)” value was -0.182. With “HMETVQTGTVKVSNSLNVRSGAGTNYSVLGSLSNGAKVEIVGTSGSWYKIKYGSGYGYVSKDYVTVS” the “soluble fraction (log2)” value was -0.0163. With “HMKGTSIELIVPQDIAGLRLDQVLAKLLPQWSRSRLQSWINEKHITVNGQTTTAKQKLWGNETIQIIPPI” the “soluble fraction (log2)” value was -0.66. In the case of “HMSDTGQELHDALNMARRTLTILEEQAAGYTALTIPARLVLELEEKRKDVVRLETQIRSAATGTPG”, the “soluble fraction (log2)” value is reported as -0.202. For “HMTTQVNTVKIQLANGYEMTVLTSKTNVKEILEDNNIILENNEKVTPNIDEEISSNKTIKITDKSN”, the “soluble fraction (log2)” value was 0.146. In the case of “HMESENANVNRAMLTGIASMHAGQLETALNKFNEVIQLAPDFAEGWNKRATIFYLMKKFDRSVNDIAQTLK”, the “soluble fraction (log2)” value is reported as -0.0738. With “HMYQKERDKEISEIETFLKKITNANGTRAYSDESIADMSYVELLNLYEGITSKLTEEEIENI” the “soluble fraction (log2)” value was 0.131. With “HMSGPFTELTPREREILSHLAEGQSNKVIARHLQISDGTVKLHVKAILRKLEVHSRVEAAVMAVEHGV” the “soluble fraction (log2)” value was -1.96. In the case of “HMIETIIGAEGKVLETIDNFNQKGVVALAGKEWTARSADASIIPEGAKVSVVEISGVKLIVTQN”, the “soluble fraction (log2)” value is reported as 0.067. In the case of “HMELNKNDLKIIKNISHIYPYFTPVKILQLILSKKFKTIDYNKILKSTSILTTDRSHLYYILNN”, the “soluble fraction (log2)” value is reported as 0.0788. In the case of “HMEQKELAPLVPQEDGSVKLTNLAGYSMREVAAALEGGNLSLIPIGSGTSWKQDPAPGTVLQPGNTVTVYF”, the “soluble fraction (log2)” value is reported as 0.00354. In the case of “HMTYTPRAGSLASQVIGFFRHNPDEELLLDDITDKFDATRGNIHTLLAEAVRFKLLARYRNDDGDYVYKPG”, the “soluble fraction (log2)” value is reported as -2.97. With “HMNSLQLGSRGPTVSALQAKLNTMLVPSPRLVADGSFGPKTAQAVKAFQQMKRLVADGVVGPKTAAALGLS” the “soluble fraction (log2)” value was -0.00877. For “HMSDFSSNLRRLRKRAGLSQDALAEKLSVARQTVSSWERGNSYPDLDMLVRISDALATDPNELLYPN”, the “soluble fraction (log2)” value was -0.00275. For “HMGNIKVPSVMGMTLEGAEKVAKDNGAVIEVLEYKESTEEDGTIIEQSPKADMTVATLEKISVVISGK”, the “soluble fraction (log2)” value was -0.105. For “HMEFPLSPHQYSVLRLMAQGLSNKQIAERLFLSENTVKGYVQEVLRRLGARNRLEAVMIANRRGWL”, the “soluble fraction (log2)” value was -0.112. In the case of “HMDLATQHAAKVNAAILAARRFEREGSWRQVAAKYSEALQLMPGNEQASRGYQQAMAMLDERD”, the “soluble fraction (log2)” value is reported as 0.0786. With “HMLPGWMETKFTANVSENTKNRTLEEHVLKMLNNKESAAEFIIFLHEKMMSVSGQVFQLDSR” the “soluble fraction (log2)” value was 0.149. With “HMDLKTNSQLINELEKKIKRPFDREIKNYLNKNLSTDRMISNNEIDKIILFYSGNNEIPNIEKISLILNDN” the “soluble fraction (log2)” value was -0.112. In the case of “HMNNQVTFSKFLNEVEDGRVVEVNIQGNNITGVLSDGSKFKTFSPNYPNLVEKLSEKGVSINASPL”, the “soluble fraction (log2)” value is reported as 0.1. With “HMHDPLATLTPREHEVMSLMAEGRTNAAIAQALVIGTGAVEKNVTSIFQKLGLDDSGTDHRRVLAVLAWLQ” the “soluble fraction (log2)” value was -2.14. For “HMNNLVTRREVEILGWIKEGKTTSDIAGILSLSPFTVKNHVQNILKKLGARSRSHAVAQAINLGLLH”, the “soluble fraction (log2)” value was -0.773. In the case of “HMDKAGWLPARVRLADYPALKQLAWQVQGVDELTPREALGIYERNWRHLDEAALLPRERNLIDALRLAFG”, the “soluble fraction (log2)” value is reported as -0.207. For “HMDAKNNPQVMAQIRAILTAKGLSEDEVKTRLKTKNIDVDKMTDQEIIAQRPAIEAIINEMEQEKKQKMG”, the “soluble fraction (log2)” value was 0.252. With “HMSERQTGTVKWFNNAKGFGFITMADRPDDIFVHFRAIQGDGYRSLNEGEEVEFSLVEGPKGLQAEEVTK” the “soluble fraction (log2)” value was 0.037. With “HMSSVEVWINGKSSGLTSDNRAQILQQLPAESIERIEVIDNPSAKFSAEGSAGIINIVLKKD” the “soluble fraction (log2)” value was 0.157. For “HMRIYTKDEYLAELSRYLHKLPQDDYESAMAYFREYFEEAGPENEAQAMRDLGTPKEAASEILQNLLH”, the “soluble fraction (log2)” value was -0.305.
